Results reported in patent US20250263481A1 (SHIJIAZHUANG YILING PHARMACEUTICAL, published 2025).
Substitutions are numbered along the chain they refer to.

B1: YL-G1-19-02 (antibody, human IgG1, kappa)
heavy: not shown
light: DIVMTQSPSSLTVTAGEKVTMSCKSSQSLLNSGNQKNYLTWYQQRPGQPPKLLIYWASTRESGVPVRFTGSGSGTDFTLTISSVQAEDLAVYYCQNAYIYPLTFGTGTKLELKRTVAAPSVFIFPPSDEQLKSGTASVVCLLNNFYPREAKVQWKVDNALQSGNSQESVTEQDSKDSTYSLSSTLTLSKADYEKHKVYACEVTHQGLSSPVTKSFNRGEC
notes: Mouse/human chimeric IgG1 kappa, first generation; also called YL-G1-02
B2: YL-G2-B (antibody, human IgG1, kappa)
heavy: EVQLQQSGPELEKPGASVKISCKASGYSFTGYKMNWVKQSNGKSLEWIGNIDPYYGGTTYNQKFKGKATLTVDKSSSTAYMQLKSLTSEDSAVYYCARYGKGNTMDYWGQGTSVTVSSASTKGPSVFPLAPSSKSTSGGTAALGCLVKDYFPEPVTVSWNSGALTSGVHTFPAVLQSSGLYSLSSVVTVPSSSLGTQTYICNVNHKPSNTKVDKRVEPKSCDKTHTCPPCPAPELVGGPSVFLLPPKPKDTLMISRTPEVTCVVVDVSHEDPEVKFNWYVDGVEVHNAKTKPPEEQYNSTLRVVSVLTVLHQDWLNGKEYKCKVSNKALPAPIEKTISKAKGQPREPQVYTLPPSREEMTKNQVSLTCLVKGFYPSDIAVEWESNGQPENNYKTTPLVLDSDGSFFLYSKLTVDKSRWQQGNVFSCSVMHEALHNHYTQKSLSLSPGK
light: B1 light
notes: also called YL-G2-B batch 1; YL-G2-B batch 2
B3: YL-G1-19-04 (antibody, human IgG1, kappa)
heavy: not shown
light: B1 light with M21L, T75A, Y93F, I99F, K113R
notes: Mouse/human chimeric IgG1 kappa, first generation
B4: YL-G2-D (antibody, human IgG1, kappa)
heavy: QLQQSGPELEKPGASVKISCKASGYSFTGYKMNWVKQSNGESLEWIGNIDPYYGDTTYTQKFKGKATFTVDTSSSTAYMQLKSLTSEDSAVYFCARYNRGNTMDYWGQGTSVTVSSASTKGPSVFPLAPSSKSTSGGTAALGCLVKDYFPEPVTVSWNSGALTSGVHTFPAVLQSSGLYSLSSVVTVPSSSLGTQTYICNVNHKPSNTKVDKRVEPKSCDKTHTCPPCPAPELVGGPSVFLLPPKPKDTLMISRTPEVTCVVVDVSHEDPEVKFNWYVDGVEVHNAKTKPPEEQYNSTLRVVSVLTVLHQDWLNGKEYKCKVSNKALPAPIEKTISKAKGQPREPQVYTLPPSREEMTKNQVSLTCLVKGFYPSDIAVEWESNGQPENNYKTTPLVLDSDGSFFLYSKLTVDKSRWQQGNVFSCSVMHEALHNHYTQKSLSLSPGK
light: B1 light with M21L, T75A, Y93F, I99F, K113R
notes: Second generation, Fc-engineered form of YL-G1-19-04
B5: YL-G1-19-03 (antibody, human IgG1, kappa)
heavy: not shown
light: B1 light with R45K, V66D, V91I, A97N, I99F, T106A, K109R
notes: as for B3
B6: YL-G2-C (antibody, human IgG1, kappa)
heavy: QIQLVQSGPELRKPGETVKISCKASGFPFTTDGMSWVKQAPGKGLKWMGWINTYSGVPTYADDFKGRVAFSLETSASTAYLQIKNLKNEDTATYFCARFRRGNALDNWGQGTSVTVSSASTKGPSVFPLAPSSKSTSGGTAALGCLVKDYFPEPVTVSWNSGALTSGVHTFPAVLQSSGLYSLSSVVTVPSSSLGTQTYICNVNHKPSNTKVDKRVEPKSCDKTHTCPPCPAPELVGGPSVFLLPPKPKDTLMISRTPEVTCVVVDVSHEDPEVKFNWYVDGVEVHNAKTKPPEEQYNSTLRVVSVLTVLHQDWLNGKEYKCKVSNKALPAPIEKTISKAKGQPREPQVYTLPPSREEMTKNQVSLTCLVKGFYPSDIAVEWESNGQPENNYKTTPLVLDSDGSFFLYSKLTVDKSRWQQGNVFSCSVMHEALHNHYTQKSLSLSPGK
light: B1 light with R45K, V66D, V91I, A97N, I99F, T106A, K109R
notes: Second generation, Fc-engineered
B7: YL-G1-19-01 (antibody, human IgG1, kappa, V domains shown)
VH: QVQLQQSGAELVRPGTSVKVSCKASGYAFTNYLIEWVKQRPGQGLEWIGVINPGSGGTNYNEKFKGKATLTADKSSNTAYMQLSSLTSEDSAVYFCARVYYGNSFGYWGQGTLVTVSA
VL: DIVMTQSPSSLTVTAGEKVTMSCKSSQSLLNSGNQKNYLTWYQQKPGQPPKLLIYWASTRESGVPDRFTGSGSGTDFTLTISSVQAEDLAVYYCQNEYFYPFTFGSGTKLEIKR
notes: also called chimeric antibody with the variable region of one of the mouse mAbs

Biological target: human CLDN18.2 expressed on cells (human)
Test: cell-based or functional assay

ADCC, FACS: EC50 | ADCC, LDH: EC50 | Binder
~0.224 nM | 0.3 nM | B1
0.0073 nM | 0.012 nM | B2

Biological target: human CLDN18.2 expressed on cells (human)
Test: cell-based or functional assay
Remark: another data set of the same source

CDC on CT26 CLDN18.2 cells, LDH: EC50 | CDC on CT26 CLDN18.2 cells, LDH: EC50 (batch 1) | CDC on CT26 CLDN18.2 cells, LDH: EC50 (batch 2) | Binder | CDC on CT26 CLDN18.2 cells, LDH: max (% cytotoxity)
0.19 nM |  |  | B3 | 59.2%
0.26 nM |  |  | B1 | 73.4%
0.12 nM |  |  | B4 | 71.8%
0.24 nM |  |  | B5 | 62.2%
 | 0.14 nM | 0.12 nM | B2 | 
0.1 nM |  |  | B6 | 65.2%

Biological target: human CLDN18.2 expressed on cells (human)
Test: cell-based or functional assay
Remark: another data set of the same source

CDC on KATOIII CLDN18.2 cells, LDH: EC50 | CDC on KATOIII CLDN18.2 cells, LDH: EC50 (batch 1) | CDC on KATOIII CLDN18.2 cells, LDH: EC50 (batch 2) | Binder | CDC on KATOIII CLDN18.2 cells, LDH: max (% cytotoxity)
4.76 nM |  |  | B3 | 48.3%
1.95 nM |  |  | B1 | 35.4%
2.4 nM |  |  | B4 | 49.2%
~4.98 nM |  |  | B5 | 67%
 | 1.24 nM | 1.33 nM | B2 | 
~6.04 nM |  |  | B6 | 74.6%

Biological target: human CLDN18.2 expressed on cells (human)
Test: cell-based or functional assay
Remark: another data set of the same source

ADCC on KATOIII CLDN18.2 cells, LDH: EC50 | ADCC on KATOIII CLDN18.2 cells, LDH: EC50 (batch 1) | ADCC on KATOIII CLDN18.2 cells, LDH: EC50 (batch 2) | Binder | ADCC on KATOIII CLDN18.2 cells, LDH: max (% cytotoxity)
0.14 nM |  |  | B3 | 15.4%
0.16 nM |  |  | B1 | 19.9%
0.021 nM |  |  | B4 | 18.4%
0.21 nM |  |  | B5 | 16.7%
 | 0.028 nM | 0.018 nM | B2 | 
0.019 nM |  |  | B6 | 17.6%

Biological target: human CLDN18.2 expressed on cells (human)
Test: cell-based or functional assay
Remark: another data set of the same source

ADCC on NCI-N87 CLDN18.2 cells, LDH: EC50 | ADCC on NCI-N87 CLDN18.2 cells, LDH: EC50 (batch 1) | ADCC on NCI-N87 CLDN18.2 cells, LDH: EC50 (batch 2) | Binder | ADCC on NCI-N87 CLDN18.2 cells, LDH: max (% cytotoxity)
0.067 nM |  |  | B3 | 12.6%
0.072 nM |  |  | B1 | 16.8%
0.0089 nM |  |  | B4 | 18.6%
0.13 nM |  |  | B5 | 15.2%
 | 0.0067 nM | 0.012 nM | B2 | 
0.0078 nM |  |  | B6 | 14.9%

Biological target: T1, human CLDN18.2 expressed on cells (human)
T1 construct: also called huCLDN18.2; CLDN18.2-expressing 293T cells
Test: KinExA 4000, antibody constant, CHO cells over-expressing huCLDN18.2 titrated
Description: A KinExA 4000 instrument was also used to measure binding affinity of the antibodies to surface protein of intact cells, i.e., CHO cells over-expressing huCLDN18.2. Concentration of the antibodies was held constant (CBP) and concentration of whole cells with surface protein were varied (titrant). Concentration of whole cells with surface proteins were diluted three-fold. Titrated cells were incubated with the constant binding partner (CBP). Once equilibrium was reached, the samples were centrifuged, the supernatants were recovered, and the free CBP was detected with a fluorescently labeled anti-CBP molecule.
To establish a more accurate Kd, two equilibrium curves were prepared and analyzed. One curve with low concentration of CBP at 100 pM (200 pM binding sites) and 10⁶ cells/mL with three-fold dilutions, and one curve with high concentration of CBP at 10 nM (20 nM binding sites) and 10⁶ cells/mL with three-fold dilutions. The KinExA 4000 measured the amount of unbound CBP in solution. Analysis was performed using Sapidyne Instruments n-Curve Analysis Software version 4.4.26.

Kd | Binder
0.0131 nM | B4
0.0094 nM | B2
0.0386 nM | B6

Biological target: T1, human CLDN18.2 expressed on cells
Test: flow cytometry (percent FITC-positive cells, GAH-FITC secondary) on CHO cells expressing huCLDN18.2
Description: CHO cells expressing huCLDN18.2 were used to assess the binding of the antibodies. Cells were seeded at 5×10⁵ cells per 100 μl into a well of a 96-well plate for each sample. Then, 100 μl of each serially diluted antibody was added to the cells, each dilution started at 40 µg/ml and was diluted 5-fold. Therefore, the final concentration of each antibody starts at 20 µg/ml followed by a 5-fold serial dilution. After 1 hour, the cells were washed twice and 100 μl of GAH-FITC (1:200 dilution) was added to each well. After 30 minutes, the cells were washed twice and resuspended in 120 μl of FACS buffer. The cells were analyzed via flow cytometry.
Unstained cells were used as a reference to set up overall target cell gating and to establish the FITC-negative populations, allowing us to establish the FITC-positive cell gate for each cell line. Additionally, the mean fluorescence intensity (MFI) of the entire population of cells was calculated to secondarily validate the FITC-positive results. The ratio of the gated positive cell number to the total live cell number is taken as the percentage of positive cells.

EC50 (read off the curve) | Binder
~0.0003 mg/L | B4
~0.0006 mg/L | B2
~0.0006 mg/L | B6

Biological target: T1, human CLDN18.2 expressed on cells
Test: flow cytometry (geometric mean, Alexa Fluor 647 anti-human IgG Fc secondary) on CLDN18.2-expressing 293T cells
Description: (§1) CLDN18.2-expressing 293T cells and CLDN18.1-expressing 293T cells at a density of 2×10⁶ cells/ml in FACS buffer ([…]) were mixed with a dilution series ([…] in FACS buffer) of the chimeric antibodies, the reference antibody, or a IgG negative control (50 μL) in a 96-well V-bottom plate and incubated for 30 min on ice. After a wash with 200 μL/well FACS buffer, cells were resuspended in 30 μL/well secondary antibody Alexa Fluor® 647 AffiniPure Goat Anti-Human IgG, […] specific (Jackson, Cat. #109-605-098) and incubated for 20 min on ice. After three washes with 200 μL/well FACS buffer, cells were resuspended with 150 μl/well FACS buffer and subjected to FACS using BD LSR II Flow Cytometer (HTS). Geometric mean was used for data analysis and plots were made using Prism GraphPad.

EC50 (read off the curve) | Binder
~1 mg/L | B7
~0.7 mg/L | B3
~0.7 mg/L | B1
~0.6 mg/L | B5

Biological target: T2, human CLDN18.1 expressed on cells (human, UniProt P56856 1-261)
T2 construct: also called huCLDN18.1; CLDN18.1-expressing 293T cells
Test: flow cytometry (geometric mean, Alexa Fluor 647 anti-human IgG Fc secondary) on CLDN18.1-expressing 293T cells
Description: as §1

T2 sequence (P56856 whole entry): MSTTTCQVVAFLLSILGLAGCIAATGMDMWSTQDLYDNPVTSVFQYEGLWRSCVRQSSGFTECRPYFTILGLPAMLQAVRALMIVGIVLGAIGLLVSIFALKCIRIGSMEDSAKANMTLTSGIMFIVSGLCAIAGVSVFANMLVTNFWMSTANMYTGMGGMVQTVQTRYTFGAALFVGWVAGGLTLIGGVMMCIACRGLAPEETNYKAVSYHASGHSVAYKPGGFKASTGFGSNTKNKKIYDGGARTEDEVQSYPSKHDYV

binding result | Binder
no binding (tested: about 30 ug/ml) | B7
no binding (tested: about 30 ug/ml) | B3
no binding (tested: about 30 ug/ml) | B1
no binding (tested: about 30 ug/ml) | B5
